From paper PMC10801580 (2024)

Key:
[1] = target: T1, WT RBD-6xHis (receptor-binding domain of the SARS-CoV-2 spike protein) (SARS-CoV-2, UniProt P0DTC2); test: BLI
[2] = target: T1, WT RBD-6xHis (receptor-binding domain …); test: ELISA

B1: humanized 9-8F2-B11, VH3VL3 combination (antibody, V domains shown)
VH: QVQLVQSGAEVKKPGASVKVSCKASGFNIKETYVHWVRQAPGQGLEWMGRIDPAIGDSEYAQKFQGRVTMTRDTSISTAYMELSRLRSDDTAVYYCARTWGPFFDFWGQGTLVTVSS
VL: DIVMTQTPLSLSVTPGQPASISCKSSQSLLHSHGNTFLHWYLQKPGQSPQVLIYKVSSRFSGVPDRFSGSGSGTDFTLKISRVEAEDVGVYYCSQSTHVPYTFGQGTKLEIK
B1 was tested, and the Kd [1] was 2.26 nM.

B2: murine 9-8F2-B11 (antibody, V domains shown)
VH: EVQLQQSGAELVKPGASVKLSCTASGFNIKETYVHWVKQRPEQGLEWIGRIDHAIGDSEYDPKFQGKATVTADTSSNTAYLQLSRLTSEDTAVYYCARTWGPFFDFWGQGTTVTVSS
VL: DVVMTQTPLSLPVSLGDQASISCRSSQSLVHSHGNTFLHWYLQKPGQSPKVLIYKVSSRFSGVPDRFSGSGAGTDFTLKISRVEAEDLGVYFCSQSTHVPYTFGGGTKLEIK
Work on B2 yielded an EC50 [2] of 0.0137 ng/mL and a Kd [1] of 0.913 nM.
